Data reported in article PMC2928751 (2010).

B1: Gli3(280-478), wild type [modified: [35S]-methionine labelled; [35S]-methionine labelled] [human] / GST-JNK1 [human] (parent complex)
chain 1: SSPRLSARPSRKRTLSISPLSDHSFDLQTMIRTSPNSLVTILNNSRSSSSASGSYGHLSASAISPALSFTYSSAPVSLHMHQQILSRQQSLGSAFGHSPPLIHPAPTFPTQRPIPGIPTVLNPVQVSSGPSESSQNKPTSESAVSSTGDPMHNKRSKIKPDEDLPSPGARGQQEQPEGTTLVKEEGDKDESKQEPEVIY
chain 2: MSRSKRDNNFYSVEIGDSTFTVLKRYQNLKPIGSGAQGIVCAAYDAILERNVAIKKLSRPFQNQTHAKRAYRELVLMKCVNHKNIIGLLNVFTPQKSLEEFQDVYIVMELMDANLCQVIQMELDHERMSYLLYQMLCGIKHLHSAGIIHRDLKPSNIVVKSDCTLKILDFGLARTAGTSFMMTPYVVTRYYRAPEVILGMGYKENVDLWSVGCIMGEMVCHKILFPGRDYIDQWNKVIEQLGTPCPEFMKKLQPTVRTYVENRPKYAGYSFEKLFPDVLFPADSEHNKLKASQARDLLSKMLVIDASKRISVDEALQHPYINVWYDPSEAEAPPPKIPDKQLDEREHTIEEWKELIYKEVMDLEERTKNGVIRGQPSPLAQVQQ
B2: Gli3(280-478), wild type [modified: [35S]-methionine labelled; [35S]-methionine labelled] [human] / GST-JNK3 [human] (parent complex)
chain 1: B1 chain 1
chain 2: MSLHFLYYCSEPTLDVKIAFCQGFDKQVDVSYIAKHYNMSKSKVDNQFYSVEVGDSTFTVLKRYQNLKPIGSGAQGIVCAAYDAVLDRNVAIKKLSRPFQNQTHAKRAYRELVLMKCVNHKNIISLLNVFTPQKTLEEFQDVYLVMELMDANLCQVIQMELDHERMSYLLYQMLCGIKHLHSAGIIHRDLKPSNIVVKSDCTLKILDFGLARTAGTSFMMTPYVVTRYYRAPEVILGMGYKENVDIWSVGCIMGEMVRHKILFPGRDYIDQWNKVIEQLGTPCPEFMKKLQPTVRNYVENRPKYAGLTFPKLFPDSLFPADSEHNKLKASQARDLLSKMLVIDPAKRISVDDALQHPYINVWYDPAEVEAPPPQIYDKQLDEREHTIEEWKELIYKEVMNSEEKTKNGVVKGQPSPSAQVQQ

Variants of: B1
Test: GST pull-down of in vitro translated protein, quantified; 30 µg GST-JNK1; read off a plot
In the case of chain 1 R11A, chain 1 K12A, chain 1 R13A, chain 1 L15A, chain 1 I17A, the response is reported as ~0.2 % of input (axis unlabelled; 5% input bar = 5).

Variants of: B2
Test: GST pull-down of in vitro translated protein, quantified; 20 µg GST-JNK3; read off a plot
With chain 1 R11A, chain 1 K12A, chain 1 R13A, chain 1 L15A, chain 1 I17A the response was ~0.35 % of input (axis unlabelled; 5% input bar = 5).
